The values that follow come from publication PMC3272839.

The target of this assay is LRP1 minireceptor of domain IV, mLRP4 (UniProt Q07954). The assay can be described thus: flow cytometry on cells.
Sequence of UniProt Q07954 (Q07954 20-4544): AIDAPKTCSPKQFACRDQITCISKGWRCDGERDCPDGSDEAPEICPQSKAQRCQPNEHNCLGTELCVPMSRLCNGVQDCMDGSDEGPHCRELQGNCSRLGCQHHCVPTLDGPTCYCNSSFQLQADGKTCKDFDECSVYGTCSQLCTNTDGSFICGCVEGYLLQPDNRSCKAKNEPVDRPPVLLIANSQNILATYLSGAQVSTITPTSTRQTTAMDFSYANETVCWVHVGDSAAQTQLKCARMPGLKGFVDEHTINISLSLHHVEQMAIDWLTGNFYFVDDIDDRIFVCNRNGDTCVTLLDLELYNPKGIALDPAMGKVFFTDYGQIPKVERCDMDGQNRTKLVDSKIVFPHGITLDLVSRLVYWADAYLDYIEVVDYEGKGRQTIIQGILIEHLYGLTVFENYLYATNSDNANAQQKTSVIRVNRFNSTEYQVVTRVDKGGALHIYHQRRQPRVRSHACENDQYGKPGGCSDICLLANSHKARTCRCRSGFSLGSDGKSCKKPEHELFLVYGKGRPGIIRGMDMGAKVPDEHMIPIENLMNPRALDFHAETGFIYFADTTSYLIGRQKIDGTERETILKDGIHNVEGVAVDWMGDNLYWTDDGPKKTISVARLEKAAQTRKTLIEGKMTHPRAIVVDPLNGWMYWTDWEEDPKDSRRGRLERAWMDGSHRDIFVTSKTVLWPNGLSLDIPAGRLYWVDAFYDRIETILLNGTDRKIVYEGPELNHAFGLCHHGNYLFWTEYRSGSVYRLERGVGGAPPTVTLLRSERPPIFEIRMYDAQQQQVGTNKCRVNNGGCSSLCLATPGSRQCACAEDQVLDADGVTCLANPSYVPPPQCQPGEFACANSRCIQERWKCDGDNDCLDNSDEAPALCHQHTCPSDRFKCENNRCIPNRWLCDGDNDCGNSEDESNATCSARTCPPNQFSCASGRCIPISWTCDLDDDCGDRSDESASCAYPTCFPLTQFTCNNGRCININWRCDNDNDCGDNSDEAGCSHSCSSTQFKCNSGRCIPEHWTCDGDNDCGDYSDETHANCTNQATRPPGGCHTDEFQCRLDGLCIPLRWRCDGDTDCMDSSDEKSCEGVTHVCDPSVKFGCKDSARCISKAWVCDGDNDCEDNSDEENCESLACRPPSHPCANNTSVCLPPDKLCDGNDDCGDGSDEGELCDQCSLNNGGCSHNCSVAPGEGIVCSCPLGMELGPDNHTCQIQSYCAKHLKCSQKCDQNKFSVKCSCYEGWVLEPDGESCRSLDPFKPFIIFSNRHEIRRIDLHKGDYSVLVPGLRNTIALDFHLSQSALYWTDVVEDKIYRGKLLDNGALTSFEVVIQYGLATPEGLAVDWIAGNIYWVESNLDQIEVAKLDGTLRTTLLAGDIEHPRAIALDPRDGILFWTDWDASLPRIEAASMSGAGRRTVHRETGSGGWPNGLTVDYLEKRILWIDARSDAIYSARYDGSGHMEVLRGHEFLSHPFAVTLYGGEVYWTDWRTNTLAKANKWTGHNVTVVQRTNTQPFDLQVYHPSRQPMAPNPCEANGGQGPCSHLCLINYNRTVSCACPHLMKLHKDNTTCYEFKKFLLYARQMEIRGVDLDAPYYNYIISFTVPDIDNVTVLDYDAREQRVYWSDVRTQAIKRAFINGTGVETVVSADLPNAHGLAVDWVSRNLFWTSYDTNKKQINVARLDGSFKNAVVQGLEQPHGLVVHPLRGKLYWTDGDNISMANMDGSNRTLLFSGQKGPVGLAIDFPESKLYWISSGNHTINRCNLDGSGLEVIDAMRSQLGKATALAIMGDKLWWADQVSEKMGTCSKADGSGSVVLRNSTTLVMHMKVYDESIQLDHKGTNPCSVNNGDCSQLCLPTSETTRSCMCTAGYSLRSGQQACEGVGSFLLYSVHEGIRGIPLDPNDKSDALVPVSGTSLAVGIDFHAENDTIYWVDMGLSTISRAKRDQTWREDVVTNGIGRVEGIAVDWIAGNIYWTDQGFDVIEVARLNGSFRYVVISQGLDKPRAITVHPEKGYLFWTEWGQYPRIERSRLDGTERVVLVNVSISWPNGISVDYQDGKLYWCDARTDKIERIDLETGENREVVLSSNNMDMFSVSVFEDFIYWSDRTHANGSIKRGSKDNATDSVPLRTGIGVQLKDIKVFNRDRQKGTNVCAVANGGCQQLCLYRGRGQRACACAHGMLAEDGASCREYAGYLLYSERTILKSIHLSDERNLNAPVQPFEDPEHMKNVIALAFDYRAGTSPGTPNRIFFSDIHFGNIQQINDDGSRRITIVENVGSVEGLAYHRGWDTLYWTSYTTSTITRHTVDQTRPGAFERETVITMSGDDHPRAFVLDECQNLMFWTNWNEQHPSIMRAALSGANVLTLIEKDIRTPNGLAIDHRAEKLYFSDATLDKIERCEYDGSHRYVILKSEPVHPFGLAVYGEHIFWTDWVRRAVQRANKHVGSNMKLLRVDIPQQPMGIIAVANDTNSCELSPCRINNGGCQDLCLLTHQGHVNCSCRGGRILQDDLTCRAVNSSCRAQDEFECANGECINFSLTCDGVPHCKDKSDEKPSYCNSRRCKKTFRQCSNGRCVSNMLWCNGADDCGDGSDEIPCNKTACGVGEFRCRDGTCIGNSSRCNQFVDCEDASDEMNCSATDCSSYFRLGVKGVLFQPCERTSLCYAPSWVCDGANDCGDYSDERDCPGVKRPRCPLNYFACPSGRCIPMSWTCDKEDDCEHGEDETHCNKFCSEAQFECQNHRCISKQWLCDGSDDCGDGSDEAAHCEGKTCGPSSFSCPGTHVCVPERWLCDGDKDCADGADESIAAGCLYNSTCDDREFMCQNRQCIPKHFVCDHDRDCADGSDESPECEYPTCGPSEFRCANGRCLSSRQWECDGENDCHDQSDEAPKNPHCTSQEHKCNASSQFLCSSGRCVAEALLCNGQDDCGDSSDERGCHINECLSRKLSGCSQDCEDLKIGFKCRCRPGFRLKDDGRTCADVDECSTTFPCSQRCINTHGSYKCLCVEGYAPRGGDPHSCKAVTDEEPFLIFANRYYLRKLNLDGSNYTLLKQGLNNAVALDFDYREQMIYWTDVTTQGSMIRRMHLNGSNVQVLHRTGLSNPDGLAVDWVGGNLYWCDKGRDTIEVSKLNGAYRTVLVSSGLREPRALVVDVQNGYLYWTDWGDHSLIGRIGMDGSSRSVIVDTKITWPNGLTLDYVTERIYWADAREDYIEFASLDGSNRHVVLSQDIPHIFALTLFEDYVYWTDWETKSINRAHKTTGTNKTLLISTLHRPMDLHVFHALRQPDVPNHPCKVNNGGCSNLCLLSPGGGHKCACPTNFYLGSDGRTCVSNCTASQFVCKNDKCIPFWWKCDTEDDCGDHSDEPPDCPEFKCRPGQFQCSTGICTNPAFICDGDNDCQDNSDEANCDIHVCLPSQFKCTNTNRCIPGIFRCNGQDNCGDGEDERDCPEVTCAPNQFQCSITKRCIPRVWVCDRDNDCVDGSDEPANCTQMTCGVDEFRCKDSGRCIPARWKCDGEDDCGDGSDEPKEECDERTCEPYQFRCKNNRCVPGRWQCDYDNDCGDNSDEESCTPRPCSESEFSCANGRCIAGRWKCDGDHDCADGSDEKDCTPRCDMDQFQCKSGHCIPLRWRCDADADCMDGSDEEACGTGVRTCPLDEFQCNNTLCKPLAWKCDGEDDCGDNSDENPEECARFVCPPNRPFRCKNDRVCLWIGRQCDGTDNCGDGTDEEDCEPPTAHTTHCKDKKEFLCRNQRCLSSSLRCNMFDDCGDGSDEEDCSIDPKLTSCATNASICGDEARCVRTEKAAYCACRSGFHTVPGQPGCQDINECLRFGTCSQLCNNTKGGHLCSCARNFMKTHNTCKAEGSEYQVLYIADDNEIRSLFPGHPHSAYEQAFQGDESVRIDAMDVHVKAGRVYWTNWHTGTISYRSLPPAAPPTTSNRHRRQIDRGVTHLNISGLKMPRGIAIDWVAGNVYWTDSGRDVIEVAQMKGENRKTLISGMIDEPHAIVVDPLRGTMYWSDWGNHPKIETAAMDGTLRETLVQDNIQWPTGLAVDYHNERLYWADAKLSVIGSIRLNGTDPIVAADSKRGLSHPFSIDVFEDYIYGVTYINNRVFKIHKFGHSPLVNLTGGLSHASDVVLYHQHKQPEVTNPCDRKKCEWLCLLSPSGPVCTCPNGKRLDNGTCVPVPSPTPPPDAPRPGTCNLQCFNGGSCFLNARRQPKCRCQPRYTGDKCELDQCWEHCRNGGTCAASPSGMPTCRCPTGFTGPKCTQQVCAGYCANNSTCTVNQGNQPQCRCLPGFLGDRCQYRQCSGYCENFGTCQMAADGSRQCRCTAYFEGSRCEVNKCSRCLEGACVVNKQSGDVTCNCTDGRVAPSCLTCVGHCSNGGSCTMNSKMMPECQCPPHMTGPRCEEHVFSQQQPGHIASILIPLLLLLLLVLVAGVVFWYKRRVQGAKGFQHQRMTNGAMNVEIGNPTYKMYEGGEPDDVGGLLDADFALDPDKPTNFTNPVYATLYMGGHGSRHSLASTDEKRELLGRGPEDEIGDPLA

Turning to “Alexa488-labeled receptor-associated protein (RAP) (from UniProt P30533 35-357) (ligand)”, the fold RAP binding against N2a-pcDNA3 cells (fold of N2a-pcDNA3 cells) is 2.2.
